In US20110301073, “Novel DNA-binding proteins and uses thereof” (Sangamo BioSciences, Inc., published 2011):

How the values were obtained:
TALE13 +28 FokI = biological target: T1, TALE13 +28 FokI (Xanthomonas axonopodis (engineered)); test: cleavage_in_vitro; two inverted sites, 16 bp gap; NEB Buffer 2, 37 C; details: tags: FLAG, NLS, chain copies: 2
T1 chain: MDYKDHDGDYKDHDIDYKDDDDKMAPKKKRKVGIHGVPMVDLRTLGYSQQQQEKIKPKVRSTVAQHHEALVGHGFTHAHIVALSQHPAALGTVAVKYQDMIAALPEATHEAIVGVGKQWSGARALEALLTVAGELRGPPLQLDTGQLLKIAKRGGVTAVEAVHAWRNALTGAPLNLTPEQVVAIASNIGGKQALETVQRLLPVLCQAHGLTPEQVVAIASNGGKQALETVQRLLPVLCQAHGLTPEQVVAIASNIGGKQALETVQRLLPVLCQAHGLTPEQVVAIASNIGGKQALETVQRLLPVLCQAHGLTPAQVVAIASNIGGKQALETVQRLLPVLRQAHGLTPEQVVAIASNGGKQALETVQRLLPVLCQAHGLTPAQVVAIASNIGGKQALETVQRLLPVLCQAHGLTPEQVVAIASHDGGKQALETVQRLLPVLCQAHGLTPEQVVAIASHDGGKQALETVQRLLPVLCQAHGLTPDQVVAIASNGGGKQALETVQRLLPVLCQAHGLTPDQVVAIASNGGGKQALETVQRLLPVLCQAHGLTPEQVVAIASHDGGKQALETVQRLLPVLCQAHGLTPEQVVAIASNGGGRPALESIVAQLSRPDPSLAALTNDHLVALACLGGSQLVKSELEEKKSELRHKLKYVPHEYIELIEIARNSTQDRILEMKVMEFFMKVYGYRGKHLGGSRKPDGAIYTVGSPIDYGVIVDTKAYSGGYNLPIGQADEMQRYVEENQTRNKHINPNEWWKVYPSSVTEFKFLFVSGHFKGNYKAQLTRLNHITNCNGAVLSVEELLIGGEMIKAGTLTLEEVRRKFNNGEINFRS
Procedure: (§1) TALE domain fusions were also constructed using Fold cleavage half domains. For these examples, wild type FokI half cleavage domains were used so that for nuclease activity, a homodimer must be formed from two of the fusions. For these fusions, the TALE13 DNA binding domain was fused to each FokI half domain by cloning the TALE DNA binding domain into a plasmid adjacent to FokI-specifying sequence. In addition, various linkers were tested for use between the DNA binding domain and the nuclease domain. Linkers L2 and L8 were used which are as follows: L2=GS (SEQ ID NO:71) and L8=[…] (SEQ ID NO:72). The target sites were cloned into a TOPO2.1 target vector (Invitrogen) with varying gap spacings between each target binding site such that the two were separated from each other by 2 to 22 bp. PCR amplification of an approximately 1 kb region of the target vector was done to generate the target DNAs. The TALE DNA binding domains were also truncated as described previously, and are described using the same nomenclature as described above in Examples 2 and 6. The TALE domain nuclease fusion clones were expressed in the TNT Rabbit Reticulocyte Lysate system by adding 5 μL of water containing 250 nanograms of the nuclease fusion clone plasmid to 20 μL of lysate and incubating at 30° C. for 90 minutes.
(§2) The lysate was then used to cleave the target DNAs as follows: 2.5 μL of lysate were added to a 50 μL reaction containing 50 nanograms of PCR-amplified target DNA and a final Buffer 2 (New England Biolabs) concentration of 1×. The cleavage reaction was for one hour at 37° C., followed by a 20 minute heat inactivation stage at 65° C. The reaction was then centrifuged at high speed to separate the target DNA from the lysate, causing the lysate to condense into a pellet in the reaction well. The DNA-containing supernatant was pipetted off and run on an ethidium bromide-stained agarose gel (Invitrogen) to separate intact target DNA from cleaved target DNA. The agarose gel was then analyzed using AlphaEaseFC (Alpha Innotech) software to measure the amount of target DNA present in the large uncleaved DNA band and the two smaller DNA bands resulting from a single cleavage event of the target DNA. The percentage of cleaved DNA out of the total amount of target DNA loaded into the gel represents the percent cleavage in each reaction.

TALE13 +39 FokI = biological target: T2, TALE13 +39 FokI (Xanthomonas axonopodis (engineered)); test: as above; details: tags: FLAG, NLS, chain copies: 2
T2 chain: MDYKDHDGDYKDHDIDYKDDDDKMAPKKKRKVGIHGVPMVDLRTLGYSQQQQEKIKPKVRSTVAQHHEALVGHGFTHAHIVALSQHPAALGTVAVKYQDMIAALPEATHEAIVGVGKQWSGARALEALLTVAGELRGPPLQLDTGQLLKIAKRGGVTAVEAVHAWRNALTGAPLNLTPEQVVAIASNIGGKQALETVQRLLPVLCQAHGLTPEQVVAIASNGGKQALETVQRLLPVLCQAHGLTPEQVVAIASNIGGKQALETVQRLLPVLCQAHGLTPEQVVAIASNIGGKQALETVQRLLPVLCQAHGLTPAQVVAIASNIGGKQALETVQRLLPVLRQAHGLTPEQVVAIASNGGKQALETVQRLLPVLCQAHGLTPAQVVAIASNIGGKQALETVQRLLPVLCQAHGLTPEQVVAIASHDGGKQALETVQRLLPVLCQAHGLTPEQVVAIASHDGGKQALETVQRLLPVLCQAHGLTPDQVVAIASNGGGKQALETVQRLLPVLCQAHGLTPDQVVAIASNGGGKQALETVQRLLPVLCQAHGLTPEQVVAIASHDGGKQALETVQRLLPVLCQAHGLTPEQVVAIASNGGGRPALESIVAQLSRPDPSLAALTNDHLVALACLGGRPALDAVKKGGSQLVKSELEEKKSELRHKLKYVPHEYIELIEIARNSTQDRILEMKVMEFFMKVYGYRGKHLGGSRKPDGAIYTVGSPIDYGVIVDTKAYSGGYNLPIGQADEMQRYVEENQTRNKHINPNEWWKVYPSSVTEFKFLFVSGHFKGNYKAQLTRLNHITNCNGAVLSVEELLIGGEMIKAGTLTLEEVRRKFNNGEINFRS
Procedure: as §1, §2

B1: TALE13 target (dsDNA)
DNA 1: TATAAATACCTTCT
DNA 2: AGAAGGTATTTATA
Work on B1 yielded an activity (TALE13 +28 FokI) of 100 % cleavage and an activity (TALE13 +39 FokI) of 100 % cleavage.
